# Assay results reported in article PMC4494898.
# Target: Egr-1 (Zif268) zinc-finger protein (UniProt P18146 335-423)
# Assay: fluorescence anisotropy
binder,measurement,value
12-bp competitor duplex (dsDNA) DNA 1: TATGTAGGCGGT DNA 2: ACCGCCTACATA,Kd,29 nM
